Data from patent US20100015600A1.

Biological target: CD66c receptor (human (patients' ileal enterocytes)) (UniProt P40199)
Assay: cell-based or functional assay

UniProt P40199, sequence (P40199 35-320): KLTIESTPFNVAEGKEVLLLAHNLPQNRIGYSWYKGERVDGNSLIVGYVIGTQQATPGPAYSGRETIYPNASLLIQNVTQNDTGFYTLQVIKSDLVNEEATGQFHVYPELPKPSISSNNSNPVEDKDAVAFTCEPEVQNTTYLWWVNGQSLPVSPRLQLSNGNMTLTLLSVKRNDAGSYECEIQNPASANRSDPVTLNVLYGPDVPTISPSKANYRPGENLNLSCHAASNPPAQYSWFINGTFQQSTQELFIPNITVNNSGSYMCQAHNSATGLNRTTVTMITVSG

With “type 1 pili (adhesin FimH) of the E. coli AIEC strain LF82” the Adhesion to the enterocytes, no antibody (adhesion index), patient F (bacteria adhering per enterocyte) was 1.45, the Adhesion to the enterocytes, no antibody (adhesion index), patient G (bacteria adhering per enterocyte) was 1.15 and the Adhesion to the enterocytes, no antibody (adhesion index), patient H (bacteria adhering per enterocyte) was 1.02. For the same substance, the Adhesion to the enterocytes, no antibody (adhesion index), patient I (bacteria adhering per enterocyte) was 1.28.
